Experimental data taken from US20220074941A1, “HSP90 COMBINATION THERAPY” (Sloan-Kettering Institute for Cancer Research, priority 2011, published 2022).

B1: PSD4 (protein, UniProt Q8NDX1 1-1056, looked up)
PH and SEC7 domain-containing …: MMGDYRLPDHPQPMEILNLYLGDSLEPHPGECPRETCSHEDPPEPFEEQTWATDPPEPTRQNVPPWGSGVELTHLGSWVHQDGLEPCQEQTRATDPPESTRQDAPPWGSGVELTHLGSPSAQREHRQNTASPGSPVNSHLPGSPKQNRSTSTQVVFWAGILQAQMCVLDLEEELEKTEGLKAGLKCCLPTPPVDLPGDTGLHSSPPENEDSGEDSSEPEGEGQAWLREGTPDSSPQWGAEEESMFFSNPLFLASPCSENSASGECFSWGASDSHAGVRTGPESPATLEPPLPEDTVLWELESEPDLGDGAAISGHCTPPFPVPIYKPHSICWASVAAAEGAPAAPPGHGESEGDRLGPAPSAAPCVDEALTWESGCVGSDLGPAAHPVQPWASLSPEGWQRGGPFWPQVTLNSQDRDEREGGHPQESLPCTLAPCPWRSPASSPEPSSPESESRGPGPRPSPASSQEGSPQLQHHSSGILPKWTLDASQSSLLETDGEQPSSLKKKEAGEAPKPGEEVKSEGTARPAETGDVQPDIHLTSAEHENLRTPMNSSWLPGSPMPQAQSPEEGQRPPAGDKLANGVRNNKVAWNLASRLYRLEGFRKSEVAAYLQKNNDFSRAVAEEYLSFFQFGGQSLDRALRSFLQALVLSGETQERERILYQFSRRFHHCNPGIFPSVDSVHTLTCAIMLLNTDLHGQNIGKSMSCQEFITNLNGLRDGGNFPKELLKALYWSIRSEKLEWAVDEEDTARPEKAQPSLPAGKMSKPFLQLAQDPTVPTYKQGILARKMHQDADGKKTPWGKRGWKMFHTLLRGMVLYFLKQGEDHCLEGESLVGQMVDEPVGVHHSLATPATHYTKKPHVFQLRTADWRLYLFQAPTAKEMSSWIARINLAAATHSAPPFPAAVGSQRRFVRPILPVGPAQSSLEEQHRSHENCLDAAADDLLDLQRNLPERRGRGRELEEHRLRKEYLEYEKTRYETYVQLLVARLHCPSDALDLWEEQLGREAGGTREPKLSLKKSHSSPSLHQDEAPTTAKVKRNISERRTYRKIIPKRNRNQL
B2: MOBKL3 (protein, UniProt Q96BX8 1-217, looked up)
MOB kinase activator 3A: MSNPFLKQVFNKDKTFRPKRKFEPGTQRFELHKKAQASLNAGLDLRLAVQLPPGEDLNDWVAVHVVDFFNRVNLIYGTISDGCTEQSCPVMSGGPKYEYRWQDEHKFRKPTALSAPRYMDLLMDWIEAQINNEDLFPTNVGTPFPKNFLQTVRKILSRLFRVFVHVYIHHFDRIAQMGSEAHVNTCYKHFYYFVKEFGLIDTKELEPLKEMTARMCH
B3: MLF2 (protein, UniProt Q15773 1-248, looked up)
Myeloid leukemia factor 2: MFRFMRDVEPEDPMFLMDPFAIHRQHMSRMLSGGFGYSPFLSITDGNMPGTRPASRRMQQAGAVSPFGMLGMSGGFMDMFGMMNDMIGNMEHMTAGGNCQTFSSSTVISYSNTGDGAPKVYQETSEMRSAPGGIRETRRTVRDSDSGLEQMSIGHHIRDRAHILQRSRNHRTGDQEERQDYINLDESEAAAFDDEWRRETSRFRQQRPLEFRRLESSGAGGRRAEGPPRLAIQGPEDSPSRQSRRYDW
B4: ASCC2 (protein, UniProt Q9H1I8 1-757, looked up)
Activating signal …: MPALPLDQLQITHKDPKTGKLRTSPALHPEQKADRYFVLYKPPPKDNIPALVEEYLERATFVANDLDWLLALPHDKFWCQVIFDETLQKCLDSYLRYVPRKFDEGVASAPEVVDMQKRLHRSVFLTFLRMSTHKESKDHFISPSAFGEILYNNFLFDIPKILDLCVLFGKGNSPLLQKMIGNIFTQQPSYYSDLDETLPTILQVFSNILQHCGLQGDGANTTPQKLEERGRLTPSDMPLLELKDIVLYLCDTCTTLWAFLDIFPLACQTFQKHDFCYRLASFYEAAIPEMESAIKKRRLEDSKLLGDLWQRLSHSRKKLMEIFHIILNQICLLPILESSCDNIQGFIEEFLQIFSSLLQEKRFLRDYDALFPVAEDISLLQQASSVLDETRTAYILQAVESAWEGVDRRKATDAKDPSVIEEPNGEPNGVTVTAEAVSQASSHPENSEEEECMGAAAAVGPAMCGVELDSLISQVKDLLPDLGEGFILACLEYYHYDPEQVINNILEERLAPTLSQLDRNLDREMKPDPTPLLTSRHNVFQNDEFDVFSRDSVDLSRVHKGKSTRKEENTRSLLNDKRAVAAQRQRYEQYSVVVEEVPLQPGESLPYHSVYYEDEYDDTYDGNQVGANDADSDDELISRRPFTIPQVLRTKVPREGQEEDDDDEEDDADEEAPKPDHFVQDPAVLREKAEARRMAFLAKKGYRHDSSTAVAGSPRGHGQSRETTQERRKKEANKATRANHNRRTMADRKRSKGMIPS
B5: ZBED1 (protein, UniProt O96006 1-694, looked up)
E3 SUMO-protein ligase ZBED1: MENKSLESSQTDLKLVAHPRAKSKVWKYFGFDTNAEGCILQWKKIYCRICMAQIAYSGNTSNLSYHLEKNHPEEFCEFVKSNTEQMREAFATAFSKLKPESSQQPGQDALAVKAGHGYDSKKQQELTAAVLGLICEGLYPASIVDEPTFKVLLKTADPRYELPSRKYISTKAIPEKYGAVREVILKELAEATWCGISTDMWRSENQNRAYVTLAAHFLGLGAPNCLSMGSRCLKTFEVPEENTAETITRVLYEVFIEWGISAKVFGATTNYGKDIVKACSLLDVAVHMPCLGHTFNAGIQQAFQLPKLGALLSRCRKLVEYFQQSAVAMYMLYEKQKQQNVAHCMLVSNRVSWWGSTLAMLQRLKEQQFVIAGVLVEDSNNHHLMLEASEWATIEGLVELLQPFKQVAEMLSASRYPTISMVKPLLHMLLNTTLNIKETDSKELSMAKEVIAKELSKTYQETPEIDMFLNVATFLDPRYKRLPFLSAFERQQVENRVVEEAKGLLDKVKDGGYRPAEDKIFPVPEEPPVKKLMRTSTPPPASVINNMLAEIFCQTGGVEDQEEWHAQVVEELSNFKSQKVLGLNEDPLKWWSDRLALFPLLPKVLQKYWCVTATRVAPERLFGSAANVVSAKRNRLAPAHVDEQVFLYENARSGAEAEPEDQDEGEWGLDQEQVFSLGDGVSGGFFGIRDSSFL
B6: CT45A5 (protein, UniProt P0DMU8 1-189, looked up)
Cancer/testis antigen family …: MTDKTEKVAVDPETVFKRPRECDSPSYQKRQRMALLARKQGAGDSLIAGSAMSKEKKLMTGHAIPPSQLDSQIDDFTGFSKDGMMQKPGSNAPVGGNVTSSFSGDDLECRETASSPKSQREINADIKRKLVKELRCVGQKYEKIFEMLEGVQGPTAVRKRFFESIIKEAARCMRRDFVKHLKKKLKRMI
B7: WASF2 (protein, UniProt Q9Y6W5 1-498, looked up)
Actin-binding protein WASF2: MPLVTRNIEPRHLCRQTLPSVRSELECVTNITLANVIRQLGSLSKYAEDIFGELFTQANTFASRVSSLAERVDRLQVKVTQLDPKEEEVSLQGINTRKAFRSSTIQDQKLFDRNSLPVPVLETYNTCDTPPPLNNLTPYRDDGKEALKFYTDPSYFFDLWKEKMLQDTKDIMKEKRKHRKEKKDNPNRGNVNPRKIKTRKEEWEKMKMGQEFVESKEKLGTSGYPPTLVYQNGSIGCVENVDASSYPPPPQSDSASSPSPSFSEDNLPPPPAEFSYPVDNQRGSGLAGPKRSSVVSPSHPPPAPPLGSPPGPKPGFAPPPAPPPPPPPMIGIPPPPPPVGFGSPGTPPPPSPPSFPPHPDFAAPPPPPPPPAADYPTLPPPPLSQPTGGAPPPPPPPPPPGPPPPPFTGADGQPAIPPPLSDTTKPKSSLPAVSDARSDLLSAIRQGFQLRRVEEQREQEKRDVVGNDVATILSRRIAVEYSDSEDDSSEFDEDDWSD
B8: O60613 (protein, UniProt O60613 1-165, looked up)
chain: MVAMAAGPSGCLVPAFGLRLLLATVLQAVSAFGAEFSSEACRELGFSSNLLCSSCDLLGQFNLLQLDPDCRGCCQEEAQFETKKLYAGAILEVCGUKLGRFPQVQAFVRSDKPKLFRGLQIKYVRGSDPVLKLLDDNGNIAEELSILKWNTDSVEEFLSEKLERI
modifications: full-length

What follows are molecules tested on Hsp90 complexes in K562 cell extract (assay: Nano-LC-MS/MS of PU-beads pull-downs). Conditions: protein identified in PU-beads pull-down of K562 cell extract, Prep 1; QSTAR-Elite QTof MS.
Type: binding
How it was run: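 Lysates pre-cleared overnight at 4 °C with control beads, then pulled down with PU-beads or control beads; eluted proteins (2% SDS boil) gel-separated and analysed by nano LC-MS/MS on a QTof. Mascot identification (p<0.05), spectral counts and sequence coverage evaluated in Scaffold.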

Molecule	Number of Assigned Spectra, K562 Prep 1
B1	2
B2	0
B3	2
B4	0
B5	2
B6	2
B7	2
B8	0

Same assay, conditions: protein identified in PU-beads pull-down of K562 cell extract, Prep 2; QSTAR-Elite QTof MS

Molecule	Number of Assigned Spectra, K562 Prep 2
B1	0
B2	0
B3	0
B4	0
B5	0
B6	0
B7	0
B8	0

These molecules were tested on Hsp90 complexes in Mia-PaCa-2 cell extract (assay: Nano-LC-MS/MS of PU-beads pull-downs). Conditions: protein identified in PU-beads pull-down of Mia-PaCa-2 cell extract; QSTAR-Elite QTof MS.
Type: binding, human
How it was run: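 Lysates pre-cleared overnight at 4 °C with control beads underwent PU-bead pull-down; bound proteins were SDS-eluted, gel-separated, digested and analyzed by nano-LC-MS/MS on a QTof. Identifications used significance p<0.05, 0.4 Da tolerances and one missed cleavage; unique peptide (spectral) counts and sequence coverage were reported.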

Molecule	Number of Assigned Spectra, Mia-Paca 2
B1	0
B2	1
B3	1
B4	1
B5	0
B6	0
B7	0
B8	2
